From US9327008B2, “Cell-permeant peptide-based inhibitor of kinases” (Purdue Research Foundation, priority 2008, dated 2016)

Legend:
Assay type in all cases: biochemical
MK3 = biological target: T1, MK3 (Homo sapiens, UniProt Q16644); assay: Millipore radiometric kinase activity assay, MK3; settings: SD of 2 samples
T1 construct: purchased Millipore (assay service)
Description: (§1) A commercial radiometric assay service (Millipore, Billerica, Mass.) was used to test the specificity and potency of peptides containing a coupled transduction domain and therapeutic domain, hereinafter “complete peptides”). In these assays, if the kinase is not inhibited by an inhibitor peptide, a positively charged substrate is phosphorylated with a radiolabeled phosphate group from an ATP.
(§2) IC50 values for inhibitor peptides were determined using Millipore's IC50Profiler Express service. The IC50 value was estimated from a 10-point curve of one-half log dilutions. For peptides tested for specificity, the concentration of the peptides that inhibited approximately 95% of MK2 activity was chosen to profile against a battery of kinases related to MK2, cell viability, or human disease from MilliporeKinaseProfiler service. In both assays, compounds were supplied in dimethylsulfoxide (DMSO). Every kinase activity measurement was conducted in duplicate.
(§3) Additional therapeutic inhibitor peptide variants were assayed for activity against several human kinases representative of several families of kinases. These kinases included: MK2; MK3; CaMKI (calcium/calmodulin-dependent protein kinase); PRAK (p38 regulated/activated protein kinase, also known as mitogen-activated protein kinase activated protein kinase 5 (MAPKAPK5)); SAPK2a (p38α); IRAK4 (IL-1 receptor (IL-1R)-associated kinase); MLCK (myosin light chain kinase); PKBβ (protein kinase B); PCKδ (protein kinase C); and ROCK-I (Rho-associated serine/threonine kinase).

PRAK = biological target: T2, PRAK (Homo sapiens, UniProt Q8IW41); assay: Millipore radiometric kinase activity assay, PRAK (h); settings: SD of 2 samples
T2 construct: purchased Millipore (assay service)
T2 sequence (Q8IW41 1-473): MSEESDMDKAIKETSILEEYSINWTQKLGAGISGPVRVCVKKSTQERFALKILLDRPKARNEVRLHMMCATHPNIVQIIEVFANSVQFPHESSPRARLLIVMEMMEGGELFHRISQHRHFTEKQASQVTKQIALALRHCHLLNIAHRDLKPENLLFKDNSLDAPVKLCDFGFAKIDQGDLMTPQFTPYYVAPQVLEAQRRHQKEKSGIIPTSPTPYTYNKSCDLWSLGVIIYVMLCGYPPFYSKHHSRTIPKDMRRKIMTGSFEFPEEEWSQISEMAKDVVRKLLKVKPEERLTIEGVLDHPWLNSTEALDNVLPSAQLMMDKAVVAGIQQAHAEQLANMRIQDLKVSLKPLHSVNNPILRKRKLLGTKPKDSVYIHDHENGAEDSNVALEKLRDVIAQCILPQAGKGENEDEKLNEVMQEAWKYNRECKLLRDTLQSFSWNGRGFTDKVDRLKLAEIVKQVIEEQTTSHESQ
Description: as §1
In a final reaction volume of 25 μL, PRAK (h) (5-10 mU) is incubated with 50 mM Naβ-glycerophosphate pH 7.5, 0.1 mM EGTA, 30 μM […] [SEQ ID NO: 65], 10 mM MgAcetate and [γ-^33P-ATP] (specific activity approx. 500 cpm/pmol, concentration as required). The reaction is initiated by the addition of the MgATP mix. After incubation for 40 minutes at room temperature, the reaction is stopped by the addition of 5 μL of a 3% phosphoric acid solution. 10 μL of the reaction is then spotted onto a P30 filtermat and washed three times for 5 minutes in 50 mM phosphoric acid and once in methanol prior to drying and scintillation counting.
as §2, §3

MLCK = biological target: T3, MLCK (Homo sapiens, UniProt Q9H1R3); assay: Millipore radiometric kinase activity assay, MLCK (h); settings: for MLCK Kinase Activity: peptide inhibitor 300 μM, SD of 2 samples
T3 construct: purchased Millipore (radiometric assay service)
Description: as §1
In a final reaction volume of 25 μL, MLCK (h) (5-10 mU) is incubated with 8 mM MOPS pH 7.0, 0.2 mM EDTA, 0.5 mM CaCl2, 16 μg/mL calmodulin, 250 μM […] [SEQ ID NO: 52], 10 mM MgAcetate and [γ-^33P-ATP] (specific activity approx. 500 cpm/pmol, concentration as required). The reaction is initiated by the addition of the MgATP mix. After incubation for 40 minutes at room temperature, the reaction is stopped by the addition of 5 μL of a 3% phosphoric acid solution. 10 μL of the reaction is then spotted onto a P30 filtermat and washed three times for 5 minutes in 75 mM phosphoric acid and once in methanol prior to drying and scintillation counting.
as §2
(§4) Therapeutic inhibitor peptides were assayed for activity against human kinases related to MK2, cell viability, or human disease. The assays were performed using concentrations of therapeutic inhibitor peptides that yielded 2% to 8% of normal MK2 activity. Error is reported as the standard deviation between 2 samples, and “c” is rat AMPK whereas all other kinases used are human kinases.
as §3

PKBβ = biological target: T4, PKBβ (Homo sapiens, UniProt P31751); assay: Millipore radiometric kinase activity assay, PKBβ (h); settings: for PKBβ Kinase Activity: peptide inhibitor 300 μM, SD of 2 samples
T4 construct: purchased Millipore (radiometric assay service)
Description: as §1
In a final reaction volume of 25 μL, […] (5-10 mU) is incubated with 8 mM MOPS pH 7.0, 0.2 mM EDTA, 30 μM […] [SEQ ID NO: 60], 10 mM MgAcetate and ['y-^33P-ATP] (specific activity approx. 500 cpm/pmol, concentration as required). The reaction is initiated by the addition of the MgATP mix. After incubation for 40 minutes at room temperature, the reaction is stopped by the addition of 5 μL it of a 3% phosphoric acid solution. 10 μL of the reaction is then spotted onto a P30 filtermat and washed three times for 5 minutes in 75 mM phosphoric acid and once in methanol prior to drying and scintillation counting.
as §2, §4, §3

SAPK2a (p38α) = biological target: T5, SAPK2a (p38α) (Homo sapiens, UniProt Q16539); assay: Millipore radiometric kinase activity assay, SAPK2a (h); settings: for SAPK2a (p38α) Kinase Activity: peptide inhibitor 300 μM, SD of 2 samples
T5 construct: purchased Millipore (radiometric assay service)
Description: as §1
In a final reaction volume of 25 μL, SAPK2a (h) (5-10 mU) is incubated with 25 mM Tris pH 7.5, 0.02 mM EGTA, 0.33 mg/mL myelin basic protein, 10 mM MgAcetate and [γ-^33P-ATP] (specific activity approx. 500 cpm/pmol, concentration as required). The reaction is initiated by the addition of the MgATP mix. After incubation for 40 minutes at room temperature, the reaction is stopped by the addition of 5 μL of a 3% phosphoric acid solution. 10 μL of the reaction is then spotted onto a P30 filtermat and washed three times for 5 minutes in 75 mM phosphoric acid and once in methanol prior to drying and scintillation counting.
as §2, §4, §3

MK2 = MK2 (Homo sapiens, UniProt P49137); assay: Millipore radiometric IC50 and kinase activity assay, MK2; parameters: purchased Millipore (assay service); settings: for MK2 Kinase Activity: SD of 2 samples
Description: as §1, §2, §4, §3

[1] = peptide 100 μM, listed as KAFAKLAARLYRLARQLGVAA
[2] = peptide 30 μM, listed as WLRRIKAWLRRI-

T5 sequence (Q16539 whole entry): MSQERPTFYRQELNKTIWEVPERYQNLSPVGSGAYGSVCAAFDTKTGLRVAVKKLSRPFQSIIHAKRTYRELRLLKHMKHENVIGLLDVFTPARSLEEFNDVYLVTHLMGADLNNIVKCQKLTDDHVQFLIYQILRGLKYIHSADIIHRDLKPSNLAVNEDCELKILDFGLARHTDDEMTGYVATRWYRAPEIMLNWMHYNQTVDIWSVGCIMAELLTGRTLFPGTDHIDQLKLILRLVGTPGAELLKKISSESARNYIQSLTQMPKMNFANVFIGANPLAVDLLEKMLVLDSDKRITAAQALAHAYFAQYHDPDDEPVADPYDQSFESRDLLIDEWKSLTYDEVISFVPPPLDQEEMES
T1 sequence (Q16644 whole entry): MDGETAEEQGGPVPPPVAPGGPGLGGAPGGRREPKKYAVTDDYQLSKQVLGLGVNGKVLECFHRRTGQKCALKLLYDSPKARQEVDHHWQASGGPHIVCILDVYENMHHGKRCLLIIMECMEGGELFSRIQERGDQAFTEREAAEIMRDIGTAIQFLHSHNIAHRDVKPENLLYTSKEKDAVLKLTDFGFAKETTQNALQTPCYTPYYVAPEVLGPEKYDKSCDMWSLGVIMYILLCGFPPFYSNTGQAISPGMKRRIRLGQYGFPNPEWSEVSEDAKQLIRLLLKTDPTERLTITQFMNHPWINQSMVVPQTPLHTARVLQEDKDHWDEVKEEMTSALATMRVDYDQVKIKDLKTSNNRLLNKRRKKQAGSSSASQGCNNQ
T4 sequence (P31751 whole entry): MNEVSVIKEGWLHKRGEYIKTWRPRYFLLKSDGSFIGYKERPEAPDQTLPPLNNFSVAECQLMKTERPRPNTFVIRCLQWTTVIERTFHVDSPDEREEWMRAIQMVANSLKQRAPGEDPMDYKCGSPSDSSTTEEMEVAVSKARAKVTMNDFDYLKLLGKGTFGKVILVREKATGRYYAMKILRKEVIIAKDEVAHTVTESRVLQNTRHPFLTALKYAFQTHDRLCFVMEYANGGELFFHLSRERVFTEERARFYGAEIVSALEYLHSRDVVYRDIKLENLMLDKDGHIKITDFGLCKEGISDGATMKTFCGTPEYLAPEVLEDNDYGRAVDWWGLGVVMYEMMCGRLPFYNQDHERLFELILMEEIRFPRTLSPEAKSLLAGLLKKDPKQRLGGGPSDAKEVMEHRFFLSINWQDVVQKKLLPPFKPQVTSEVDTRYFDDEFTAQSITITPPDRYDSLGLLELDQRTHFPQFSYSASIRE
Sequence of MK2 (P49137 whole entry): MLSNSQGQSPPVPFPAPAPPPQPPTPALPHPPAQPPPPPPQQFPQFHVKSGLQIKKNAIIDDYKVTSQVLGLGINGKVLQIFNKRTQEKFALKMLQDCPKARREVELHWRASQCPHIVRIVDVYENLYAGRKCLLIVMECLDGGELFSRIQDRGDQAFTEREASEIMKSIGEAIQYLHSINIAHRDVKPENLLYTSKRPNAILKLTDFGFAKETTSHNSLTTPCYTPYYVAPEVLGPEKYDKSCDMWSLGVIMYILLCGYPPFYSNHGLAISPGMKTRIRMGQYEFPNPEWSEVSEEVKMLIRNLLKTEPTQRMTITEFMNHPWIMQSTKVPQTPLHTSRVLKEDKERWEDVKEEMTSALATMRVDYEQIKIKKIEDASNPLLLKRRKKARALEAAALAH

## FAKLAARLYRKALARQLGVAA
MK3; peptide inhibitor 100 μM
  MK3 Kinase Activity: 10(1) %
PRAK; peptide inhibitor 100 μM
  PRAK Kinase Activity: 131(4) %
MLCK; peptide 100 μM
  MLCK Kinase Activity (%) (+SD %): 1(1) %
PKBβ; peptide 100 μM
  PKBβ Kinase Activity (%) (+SD %): 16(5) %
SAPK2a (p38α); Table 5, 100 μM
  inhibition of SAPK2a activity (in words): inhibited activity of SAPK2a
SAPK2a (p38α); peptide 100 μM
  SAPK2a Kinase Activity (%) (+SD %): 30(6) %
MK2; peptide inhibitor 100 μM
  MK2 Kinase Activity: 5(2) %

## KAFAKLAARLYRKALARQLGVAA
MK3; peptide inhibitor 100 μM
  MK3 Kinase Activity: 17(1) %
PRAK; peptide inhibitor 100 μM
  PRAK Kinase Activity: 148(4) %
MLCK; peptide 100 μM
  MLCK Kinase Activity (%) (+SD %): 2 (0) %
MLCK; [1]
  MLCK Kinase Activity (%) (+SD %): 2(0) %
PKBβ; peptide 100 μM
  PKBβ Kinase Activity (%) (+SD %): 28 (4) %
PKBβ; [1]
  PKBβ Kinase Activity (%) (+SD %): 28(4) %
SAPK2a (p38α); peptide 100 μM
  SAPK2a Kinase Activity (%) (+SD %): 59 (8) %
SAPK2a (p38α); [1]
  SAPK2a Kinase Activity (%) (+SD %): 59(8) %
MK2; peptide inhibitor 100 μM
  MK2 Kinase Activity: 8(1) %

## WLRRIKAWLRRIKALNRQLGVAA
MK3; peptide inhibitor 30 μM
  MK3 Kinase Activity: 16(2) %
PRAK; peptide inhibitor 30 μM
  PRAK Kinase Activity: 67(9) %
MLCK; peptide 30 μM
  MLCK Kinase Activity (%) (+SD %): 4(1) %
MLCK; [2]
  MLCK Kinase Activity (%) (+SD %): 4 (1) %
MLCK; peptide 100 μM
  MLCK Kinase Activity (%) (+SD %): 1 (1) %
PKBβ; peptide 30 μM
  PKBβ Kinase Activity (%) (+SD %): 18(2) %
PKBβ; [2]
  PKBβ Kinase Activity (%) (+SD %): 18 (2) %
PKBβ; peptide 100 μM
  PKBβ Kinase Activity (%) (+SD %): 16 (5) %
SAPK2a (p38α); peptide 30 μM
  SAPK2a Kinase Activity (%) (+SD %): 61(7) %
SAPK2a (p38α); [2]
  SAPK2a Kinase Activity (%) (+SD %): 61 (7) %
SAPK2a (p38α); peptide 100 μM
  SAPK2a Kinase Activity (%) (+SD %): 30 (6) %
MK2; peptide inhibitor 30 μM
  MK2 Kinase Activity: 2(1) %
MK2; same therapeutic domain KALNRQLGVAA
  fold lower IC50 than the therapeutic inhibitor peptide incorporating PTD YARAAARQARA (FIG. 2): greater than 30 fold

## YARAAARQARAKALARQLGVAA
MK3; peptide inhibitor 300 μM
  MK3 Kinase Activity: 5(1) %
PRAK; peptide inhibitor 300 μM
  PRAK Kinase Activity: 86(2) %
MLCK
  MLCK Kinase Activity: 9(0) %
PKBβ
  PKBβ Kinase Activity: 17(2) %
SAPK2a (p38α)
  SAPK2a (p38α) Kinase Activity: 66(3) %
MK2; peptide inhibitor 300 μM
  MK2 Kinase Activity: −7(0) %

## YARAAARQARAKALNRQLGVAA
MK3; peptide inhibitor 300 μM
  MK3 Kinase Activity: 19(3) %
PRAK; peptide inhibitor 300 μM
  PRAK Kinase Activity: 81(3) %
MLCK
  MLCK Kinase Activity: 66(9) %
PKBβ
  PKBβ Kinase Activity: 96(1) %
SAPK2a (p38α)
  SAPK2a (p38α) Kinase Activity: 100(6) %
MK2; peptide inhibitor 300 μM
  MK2 Kinase Activity: 10(3) %
